Measurements taken from paper doi:10.1101/2024.08.29.610189 (bioRxiv, 2024).

T1: Atg17–Atg29–Atg31 complex, wild type (S. cerevisiae (budding yeast), UniProt Q06410 1-417; Q12092 1-213; Q12421 1-196)
T1 sequence (looked up) 1: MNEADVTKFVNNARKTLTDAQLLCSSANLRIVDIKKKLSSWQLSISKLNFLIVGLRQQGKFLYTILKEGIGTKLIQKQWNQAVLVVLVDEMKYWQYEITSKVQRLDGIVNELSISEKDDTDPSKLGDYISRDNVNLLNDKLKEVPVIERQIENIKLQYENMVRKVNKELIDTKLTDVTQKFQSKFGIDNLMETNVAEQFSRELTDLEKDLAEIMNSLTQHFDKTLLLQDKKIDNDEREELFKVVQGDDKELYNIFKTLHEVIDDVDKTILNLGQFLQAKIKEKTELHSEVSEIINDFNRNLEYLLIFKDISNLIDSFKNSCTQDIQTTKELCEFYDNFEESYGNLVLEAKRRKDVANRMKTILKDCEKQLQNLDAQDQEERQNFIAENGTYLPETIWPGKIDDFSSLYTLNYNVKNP
T1 sequence (looked up) 2: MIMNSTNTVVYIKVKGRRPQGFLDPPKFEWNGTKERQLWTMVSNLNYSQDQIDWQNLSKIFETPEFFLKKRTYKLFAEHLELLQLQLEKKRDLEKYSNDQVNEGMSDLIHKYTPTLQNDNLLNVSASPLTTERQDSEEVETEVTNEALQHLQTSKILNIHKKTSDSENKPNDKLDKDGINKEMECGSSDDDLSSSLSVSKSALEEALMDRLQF
T1 sequence (looked up) 3: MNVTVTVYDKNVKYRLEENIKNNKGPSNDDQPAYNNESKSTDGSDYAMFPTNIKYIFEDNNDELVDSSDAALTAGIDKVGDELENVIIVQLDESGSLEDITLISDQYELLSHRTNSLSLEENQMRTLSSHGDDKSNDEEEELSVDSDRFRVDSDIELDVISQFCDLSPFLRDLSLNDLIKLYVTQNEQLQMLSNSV


Tests used:
[1] = target: Atg17–Atg31C (residues 174–196) complex (S. cerevisiae (budding yeast), UniProt Q06410 1-417; Q12421 174-196); experiment: ITC
[2] = target: T1, Atg17–Atg29–Atg31 complex, wild type; experiment: pull-down

| Binder | Kd [1] | binding result [2] |
| --- | --- | --- |
| TVQNRLELFSRRLSQLGLASD (domain or fragment, S. cerevisiae (budding yeast), UniProt P38316 42-62, looked up) [Atg12^17BH–mGFP, wild type (Atg12 residues 42–62 with C-terminal mGFP)] | 3.8 µM |  |
| TVQNRLELASRRLSQLGLASD (domain or fragment, S. cerevisiae (budding yeast), UniProt P38316 42-62, looked up) [GST–Atg12^17BH F50A] |  | binds |
